This experiment deals with activated β1 integrin on bovine capillary endothelial (CE) cells (bovine) (UniProt P53712). Kind of experiment: cell-based or functional assay.
Sequence of activated β1 integrin on bovine capillary endothelial (CE) cells (bovine) (P53712 21-798): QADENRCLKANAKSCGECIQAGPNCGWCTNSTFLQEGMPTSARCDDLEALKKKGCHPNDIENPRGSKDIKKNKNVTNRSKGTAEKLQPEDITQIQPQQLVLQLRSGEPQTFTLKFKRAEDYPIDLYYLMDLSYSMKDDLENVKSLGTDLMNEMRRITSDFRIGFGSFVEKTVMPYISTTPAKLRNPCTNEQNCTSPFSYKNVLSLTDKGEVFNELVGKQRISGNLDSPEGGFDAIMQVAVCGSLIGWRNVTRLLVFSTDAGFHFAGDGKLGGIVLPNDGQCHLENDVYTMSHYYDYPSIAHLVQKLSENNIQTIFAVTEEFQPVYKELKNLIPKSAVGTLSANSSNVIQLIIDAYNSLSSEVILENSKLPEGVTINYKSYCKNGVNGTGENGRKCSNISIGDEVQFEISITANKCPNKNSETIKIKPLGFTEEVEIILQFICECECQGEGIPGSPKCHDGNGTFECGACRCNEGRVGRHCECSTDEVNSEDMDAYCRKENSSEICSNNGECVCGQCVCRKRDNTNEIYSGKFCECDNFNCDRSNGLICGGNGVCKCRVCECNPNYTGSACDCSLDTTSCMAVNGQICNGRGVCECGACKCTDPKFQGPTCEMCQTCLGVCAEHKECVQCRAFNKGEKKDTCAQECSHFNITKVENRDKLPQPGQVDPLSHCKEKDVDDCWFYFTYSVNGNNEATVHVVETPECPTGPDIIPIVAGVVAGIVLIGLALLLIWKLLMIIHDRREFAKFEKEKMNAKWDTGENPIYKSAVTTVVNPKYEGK

For “function-blocking anti-β1 integrin (P5D2) antibody”, the decrease in strain-induced cell realignment was 70%.

(Values after patent US20110150894A1.)
